Target: the molecule itself
Assay: SEC-MALS

B1: His6-Plk4 PB1-PB2 (domain or fragment, D. melanogaster, UniProt O97143 382-602, looked up)
chain: DRISVPPLNTKRLLPTRYKTKNAIMSILRNGEVVLEFLKFRPTYNEDRINDICRISDDGQRIIIYQPDPGRGLPVREQPPDLQIPSGDCVYNYDNLPSKHWKKYIYGARFVGLVKSKTPKVTYFSTLGKCQLMETMTDFEIRFYSGAKLLKTPSEGLKVYDRNGMLLSDYSCSESRSLIEHGNECFTHCVNISNALEVAQTKDNSCFPVTIGRRPITDVQP
Question: How did the “stoichiometry N” value turn out when B1 was run?
Answer: The value was 2.

Reference: paper PMC3496063 (Structure (London, England : 1993), 2012)
